This note sets out measurements from PMC2748081 (Reproductive Biology and Endocrinology : RB&E, 2009).

To fix the notation:
B1: moesin, recombinant (natural protein, mouse, UniProt P26041 1-577, looked up)
chain: MPKTISVRVTTMDAELEFAIQPNTTGKQLFDQVVKTIGLREVWFFGLQYQDTKAFSTWLKLNKKVTAQDVRKESPLLFKFRAKFYPEDVSEELIQDITQRLFFLQVKEGILNDDIYCPPETAVLLASYAVQSKYGDFNKEVHKSGYLAGDKLLPQRVLEQHKLNKDQWEERIQVWHEEHRGMLREDAVLEYLKIAQDLEMYGVNYFSIKNKKGSELWLGVDALGLNIYEQNDRLTPKIGFPWSEIRNISFNDKKFVIKPIDKKAPDFVFYAPRLRINKRILALCMGNHELYMRRRKPDTIEVQQMKAQAREEKHQKQMERALLENEKKKRELAEKEKEKIEREKEELMEKLKQIEEQTKKAQQELEEQTRRALELEQERKRAQSEAEKLAKERQEAEEAKEALLQASRDQKKTQEQLASEMAELTARISQLEMARKKKESEAVEWQQKAQMVQEDLEKTRAELKTAMSTPHVAEPAENEHDEQDENGAEASAELRADAMAKDRSEEERTTEAEKNERVQKHLKALTSELANARDESKKTANDMIHAENMRLGRDKYKTLRQIRQGNTKQRIDEFESM
notes: moesin, cDNA by RT-PCR from total RNA of mouse TG cells as the methods say; primers from the start codon (MPKTISVR) to the stop codon (IDEFESM); also called ERM protein; source: E. coli DH5α, pCold TF vector, purified (Ni-NTA), tag cleaved with human rhinovirus 3C protease
B2: ezrin, recombinant (natural protein, mouse, UniProt P26040 1-586, looked up)
chain: MPKPINVRVTTMDAELEFAIQPNTTGKQLFDQVVKTIGLREVWYFGLQYVDNKGFPTWLKLDKKVSAQEVRKENPVQFKFRAKFYPEDVAEELIQDITQKLFFLQVKDGILSDEIYCPPETAVLLGSYAVQAKFGDYNKEMHKSGYLSSERLIPQRVMDQHKLSRDQWEDRIQVWHAEHRGMLKDSAMLEYLKIAQDLEMYGINYFEIKNKKGTDLWLGVDALGLNIYEKDDKLTPKIGFPWSEIRNISFNDKKFVIKPIDKKAPDFVFYAPRLRINKRILQLCMGNHELYMRRRKPDTIEVQQMKAQAREEKHQKQLERQQLETEKKRRETVEREKEQMLREKEELMLRLQDYEQKTKRAEKELSEQIEKALQLEEERRRAQEEAERLEADRMAALRAKEELERQAQDQIKSQEQLAAELAEYTAKIALLEEARRRKEDEVEEWQHRAKEAQDDLVKTKEELHLVMTAPPPPPPPVYEPVNYHVQEGLQDEGAEPMGYSAELSSEGILDDRNEEKRITEAEKNERVQRQLLTLSNELSQARDENKRTHNDIIHNENMRQGRDKYKTLRQIRQGNTKQRIDEFEAM
notes: ezrin, cDNA by RT-PCR from total RNA of mouse TG cells; primers from the start codon (MPKPINVR) to the stop codon (IDEFEAM); also called ERM protein; source: E. coli DH5α, pCold TF vector, purified (Ni-NTA), tag cleaved with human rhinovirus 3C protease
B3: radixin, recombinant (natural protein, mouse, UniProt P26043 1-583, looked up)
chain: MPKPINVRVTTMDAELEFAIQPNTTGKQLFDQVVKTVGLREVWFFGLQYVDSKGYSTWLKLNKKVTQQDVKKENPLQFKFRAKFFPEDVSEELIQEITQRLFFLQVKEAILNDEIYCPPETAVLLASYAVQAKYGDYNKEIHKPGYLANDRLLPQRVLEQHKLTKEQWEERIQNWHEEHRGMLREDSMMEYLKIAQDLEMYGVNYFEIKNKKGTELWLGVDALGLNIYEHDDKLTPKIGFPWSEIRNISFNDKKFVIKPIDKKAPDFVFYAPRLRINKRILALCMGNHELYMRRRKPDTIEVQQMKAQAREEKHQKQLERAQLENEKKKREIAEKEKERIEREKEELMERLRQIEEQTVKAQKELEEQTRKALELEQERQRAKEEAERLDRERRAAEEAKSAIAKQAADQMKNQEQLAAELAEFTAKIALLEEAKKKKEEEATEWQHKAFAAQEDLEKTKEELKTVMSAPPPPPPPPVIPPTENEHDEQDENSAEASAELSSEGVMNHRSEEERVTETQKNERVKKQLQALSSELAQARDETKKTQNDVLHAENVKAGRDKYKTLRQIRQGNTKQRIDEFEAM
notes: radixin, cDNA by RT-PCR from total RNA of mouse TG cells; primers from the start codon (MPKPINVR) to the stop codon (IDEFEAM); also called ERM protein

The assay deals with T1, heat shock cognate protein 70 (Hsc70), recombinant, full length (mouse, UniProt P63017 1-646).
T1 construct: Hsc70 (heat shock cognate protein 70), cDNA by RT-PCR from total RNA of mouse TG cells; primers 'Hsc70 full length' from the start codon (MSKGPAV) to the stop codon (TIEEVD); some vector residues may remain; also called Full Hsc70; recombinant Hsc70; source: E. coli DH5α, pCold TF vector, purified (Ni-NTA), tag cleaved with human rhinovirus 3C protease
T1 sequence (P63017 whole entry): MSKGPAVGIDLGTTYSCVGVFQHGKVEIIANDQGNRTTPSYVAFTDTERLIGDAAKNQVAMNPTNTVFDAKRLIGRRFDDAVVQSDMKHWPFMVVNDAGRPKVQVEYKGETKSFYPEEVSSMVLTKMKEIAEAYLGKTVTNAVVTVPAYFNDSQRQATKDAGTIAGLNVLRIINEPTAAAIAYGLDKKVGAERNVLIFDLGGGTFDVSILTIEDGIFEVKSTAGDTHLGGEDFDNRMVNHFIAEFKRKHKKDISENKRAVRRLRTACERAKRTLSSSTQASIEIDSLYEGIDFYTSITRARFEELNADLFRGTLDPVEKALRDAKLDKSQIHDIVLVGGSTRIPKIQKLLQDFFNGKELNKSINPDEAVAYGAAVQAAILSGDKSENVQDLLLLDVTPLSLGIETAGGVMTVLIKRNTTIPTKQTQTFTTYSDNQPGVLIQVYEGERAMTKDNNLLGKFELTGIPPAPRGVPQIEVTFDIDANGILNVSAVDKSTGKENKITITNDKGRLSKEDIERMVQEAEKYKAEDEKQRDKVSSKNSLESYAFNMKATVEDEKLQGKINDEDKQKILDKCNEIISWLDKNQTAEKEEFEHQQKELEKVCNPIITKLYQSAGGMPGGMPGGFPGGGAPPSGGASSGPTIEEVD
As to the kind of experiment: pull-down; purified recombinant Hsc70 and each ERM protein (20 μg/ml) mixed in PBS, 37°C 2 h, precipitated with anti-Hsc70 antibody on protein G agarose beads or beads only; detection by immunoblotting. Particulars: both partners purified. A general note: Immunoblotting shows a protein as a band on a membrane.
Consider B1, for which the binding result was “binds”.

As to B2, the binding result is given as “binds”.

On to B3, for which the binding result was “binds”.
